Substrate in data set [1]: Cc1c(Cl)cccc1Nc1ncccc1C(=O)O
The data set can be described thus: not read.

Substrate in data set [2]: CC(C)Cc1ccc(C(C)C(=O)O)cc1
The data set can be described thus: (§1) Drug glucuronidation reaction catalyzed by human recombinant UGT1A3.

Substrate in data set [3]: CN1CCC(=C2c3ccccc3C=Cc3ccccc32)CC1
Described as §1.

Substrate in data set [4]: CN1CC[C@]23c4c5ccc(O[C@@H]6O[C@H](C(=O)O)[C@@H](O)[C@H](O)[C@H]6O)c4O[C@H]2[C@@H](O)C=C[C@H]3[C@H]1C5
The data set is described as §1.

Substrate in data set [5]: O=C1[C@H](CC[C@H](O)c2ccc(F)cc2)[C@@H](c2ccc(O)cc2)N1c1ccc(F)cc1
The data set is described as §1.

Substrate in data set [6]: CN(C)CCCN1c2ccccc2CCc2ccccc21
The data set is described as §1.

Substrate in data set [7]: CN1CCC(=C2c3ccccc3CC(=O)c3sccc32)CC1
Described as §1.

Substrate in data set [8]: CC(C(=O)O)c1cccc(C(=O)c2ccccc2)c1
The data set is described as §1.

Substrate in data set [9]: CO[C@]12CC[C@@]3(C[C@@H]1[C@](C)(O)C(C)(C)C)[C@H]1Cc4ccc(O)c5c4[C@@]3(CCN1CC1CC1)[C@H]2O5
The description is as §1.

Substrate in data set [10]: O=C1Nc2ccc(Cl)cc2C(c2ccccc2)=N[C@H]1O
The data set can be described thus: not read.

Substrate in data set [11]: CC(O)/C(=C(\c1ccccc1)c1ccc(OCCN(C)C)cc1)c1ccccc1
Description: (§2) Drug glucuronidation reaction catalyzed by human recombinant UGT2B15.

Substrate in data set [12]: CS(=O)(=O)c1ccc(C2=C(c3ccccc3)C(=O)OC2O)cc1
The description is as §2.

Substrate in data set [13]: Cc1ccc(C(=O)c2cc(O)c(O)c([N+](=O)[O-])c2)cc1
The description is as §2.

Substrate in data set [14]: CCc1c2c(nc3ccc(O)cc13)-c1cc3c(c(=O)n1C2)COC(=O)[C@]3(O)CC
Described as §2.

Substrate in data set [15]: C[C@]12CC[C@H](O)C[C@@H]1CC[C@@H]1[C@@H]2CC[C@]2(C)[C@@H](O)CC[C@@H]12
The description is as §2.

Substrate in data set [16]: CCN(CC)C(=O)/C(C#N)=C/c1cc(O)c(O)c([N+](=O)[O-])c1
Described as §2.

Substrate in data set [17]: CC(O)/C(=C(\c1ccccc1)c1ccc(OCCN(C)C)cc1)c1ccccc1
The data set can be described thus: (§3) Drug glucuronidation reaction catalyzed by human recombinant UGT1A1.

Substrate in data set [18]: CN1CC[C@]23c4c5ccc(O[C@@H]6O[C@H](C(=O)O)[C@@H](O)[C@H](O)[C@H]6O)c4O[C@H]2[C@@H](O)C=C[C@H]3[C@H]1C5
Described as §3.

Substrate in data set [19]: COc1c(C)c2c(c(O)c1C/C=C(\C)CCC(=O)O)C(=O)OC2
The data set is described as §3.

Substrate in data set [20]: O=C1[C@H](CC[C@H](O)c2ccc(F)cc2)[C@@H](c2ccc(O)cc2)N1c1ccc(F)cc1
Described as §3.

Substrate in data set [21]: CCOC(=O)Nc1ccc(NCc2ccc(F)cc2)cc1N
Described as §3.

Substrate in data set [22]: CCN(CC)C(=O)/C(C#N)=C\c1cc(O[C@@H]2O[C@@H](C(=O)O)[C@@H](O)[C@H](O)[C@@H]2O)c(O)c([N+](=O)[O-])c1
The description is as §3.

Substrate in data set [23]: C=CCN1CC[C@]23c4c5ccc(O)c4O[C@H]2[C@@H](O)C=C[C@H]3[C@H]1C5
The data set is described as §3.

Substrate in data set [24]: CCc1c2c(nc3ccc(O)cc13)-c1cc3c(c(=O)n1C2)COC(=O)[C@]3(O)CC
The data set is described as §3.

Substrate in data set [25]: CC(=O)Nc1ccc(O)cc1
The data set is described as §3.

Substrate in data set [26]: CCN(CC)C(=O)/C(C#N)=C/c1cc(O[C@@H]2O[C@@H](C(=O)O)[C@@H](O)[C@H](O)[C@@H]2O)c(O)c([N+](=O)[O-])c1
Described as §3.

Substrate in data set [27]: COc1cc([C@@H]2c3cc4c(cc3[C@@H](O[C@@H]3O[C@@H]5CO[C@@H](C)O[C@H]5[C@H](O)[C@H]3O)[C@H]3COC(=O)[C@H]23)OCO4)cc(OC)c1O
The data set is described as §3.

Substrate in data set [28]: O=C1CC[C@@]2(O)[C@H]3Cc4ccc(O)c5c4[C@@]2(CCN3CC2CC2)[C@H]1O5
The data set is described as §3.

Substrate in data set [29]: C#C[C@]1(O)CC[C@H]2[C@@H]3CCc4cc(O)ccc4[C@H]3CC[C@@]21C
The data set is described as §3.

Substrate in data set [30]: CO[C@]12CC[C@@]3(C[C@@H]1[C@](C)(O)C(C)(C)C)[C@H]1Cc4ccc(O)c5c4[C@@]3(CCN1CC1CC1)[C@H]2O5
The data set is described as §3.

Substrate in data set [31]: CN1CCC(=C2c3ccccc3C=Cc3ccccc32)CC1
Description: (§4) Drug glucuronidation reaction catalyzed by human recombinant UGT1A4.

Substrate in data set [32]: CC(O)/C(=C(\c1ccccc1)c1ccc(OCCN(C)C)cc1)c1ccccc1
The data set is described as §4.

Substrate in data set [33]: CC[C@@H]([C@H](C)O)n1ncn(-c2ccc(N3CCN(c4ccc(OC[C@@H]5CO[C@@](Cn6cncn6)(c6ccc(F)cc6F)C5)cc4)CC3)cc2)c1=O
Described as §4.

Substrate in data set [34]: CN1CCC(=C2c3ccccc3CC(=O)c3sccc32)CC1
Described as §4.

Substrate in data set [35]: CCc1c2c(nc3ccc(O)cc13)-c1cc3c(c(=O)n1C2)COC(=O)[C@]3(O)CC
The description is as §4.

Substrate in data set [36]: CC/C(=C(\c1ccccc1)c1ccc(OCCN(C)C)cc1)c1ccccc1
The data set is described as §4.

These results are taken from ChEMBL document CHEMBL1908105, “UDP-glucuronosyltransferases and clinical drug-drug interactions” (Pharmacol Ther, 2005).

“And” between values parts separate entries of the source, which are not always exact repeats. Equal entries are not always repeated.

B1: UDP-glucuronosyltransferase 1A3 (Homo sapiens) (protein)
chain: MATGLQVPLPWLATGLLLLLSVQPWAESGKVLVVPIDGSHWLSMREVLRELHARGHQAVVLTPEVNMHIKEENFFTLTTYAISWTQDEFDRHVLGHTQLYFETEHFLKKFFRSMAMLNNMSLVYHRSCVELLHNEALIRHLNATSFDVVLTDPVNLCAAVLAKYLSIPTVFFLRNIPCDLDFKGTQCPNPSSYIPRLLTTNSDHMTFMQRVKNMLYPLALSYICHAFSAPYASLASELFQREVSVVDILSHASVWLFRGDFVMDYPRPIMPNMVFIGGINCANRKPLSQEFEAYINASGEHGIVVFSLGSMVSEIPEKKAMAIADALGKIPQTVLWRYTGTRPSNLANNTILVKWLPQNDLLGHPMTRAFITHAGSHGVYESICNGVPMVMMPLFGDQMDNAKRMETKGAGVTLNVLEMTSEDLENALKAVINDKSYKENIMRLSSLHKDRPVEPLDLAVFWVEFVMRHKGAPHLRPAAHDLTWYQYHSLDVIGFLLAVVLTVAFITFKCCAYGYRKCLGKKGRVKKAHKSKTH
One may read the Km as the substrate concentration at which the rate is half of its maximum. The term Vmax denotes the top rate of the reaction or transport when substrate is in excess. Take B1: the Km in the data set “not read [1]” stood at 624 µM; in data set [2], 230 µM; in [3], 240 µM; in data set [4] it was 3200 µM; in [5] it was 42 µM; in data set [6] it was 472 µM. In addition, the Km in data set [7] was 225 µM and 123 µM; in data set [8] it was 84 µM; in data set [9], 55 µM. Further, the Vmax in the data set “not read [1]” was determined as 5.2e-05 µmol/min/mg; in data set [2], 8.8e-05 µmol/min/mg; in [3], 0.000134 µmol/min/mg; in data set [4], 1e-05 µmol/min/mg; in [5], 0.00048 µmol/min/mg; in data set [6] it was 1e-05 µmol/min/mg. Besides, the Vmax was determined as 7.6e-05 µmol/min/mg in data set [8] and 7.5e-05 µmol/min/mg in data set [9].

B2: UDP-glucuronosyltransferase 2B15 (Homo sapiens) (protein)
chain: MSLKWTSVFLLIQLSCYFSSGSCGKVLVWPTEYSHWINMKTILEELVQRGHEVTVLTSSASTLVNASKSSAIKLEVYPTSLTKNYLEDSLLKILDRWIYGVSKNTFWSYFSQLQELCWEYYDYSNKLCKDAVLNKKLMMKLQESKFDVILADALNPCGELLAELFNIPFLYSLRFSVGYTFEKNGGGFLFPPSYVPVVMSELSDQMIFMERIKNMIHMLYFDFWFQIYDLKKWDQFYSEVLGRPTTLFETMGKAEMWLIRTYWDFEFPRPFLPNVDFVGGLHCKPAKPLPKEMEEFVQSSGENGIVVFSLGSMISNMSEESANMIASALAQIPQKVLWRFDGKKPNTLGSNTRLYKWLPQNDLLGHPKTKAFITHGGTNGIYEAIYHGIPMVGIPLFADQHDNIAHMKAKGAALSVDIRTMSSRDLLNALKSVINDPVYKENVMKLSRIHHDQPMKPLDRAVFWIEFVMRHKGAKHLRVAAHNLTWIQYHSLDVIAFLLACVATVIFIITKFCLFCFRKLAKKGKKKKRD
For the protein B2, the Km in the data set “not read [10]” is 35 µM and 29 µM; in data set [11] it was 7 µM and 18 µM; in data set [12], 286 µM; in data set [13], 429 µM; in data set [14], 186 µM; in [15], 15 µM. For the same protein, the Km in [16] amounted to 322 µM. Further, the Vmax was found to be 1.6e-05 µmol/min/mg in [12]; 2.4e-05 µmol/min/mg in [13]; 2e-06 µmol/min/mg in data set [14]; 0.00098 µmol/min/mg in data set [15]; 2.4e-05 µmol/min/mg in data set [16].

B3: UDP-glucuronosyltransferase 1A1 (Homo sapiens) (protein)
chain: MAVESQGGRPLVLGLLLCVLGPVVSHAGKILLIPVDGSHWLSMLGAIQQLQQRGHEIVVLAPDASLYIRDGAFYTLKTYPVPFQREDVKESFVSLGHNVFENDSFLQRVIKTYKKIKKDSAMLLSGCSHLLHNKELMASLAESSFDVMLTDPFLPCSPIVAQYLSLPTVFFLHALPCSLEFEATQCPNPFSYVPRPLSSHSDHMTFLQRVKNMLIAFSQNFLCDVVYSPYATLASEFLQREVTVQDLLSSASVWLFRSDFVKDYPRPIMPNMVFVGGINCLHQNPLSQEFEAYINASGEHGIVVFSLGSMVSEIPEKKAMAIADALGKIPQTVLWRYTGTRPSNLANNTILVKWLPQNDLLGHPMTRAFITHAGSHGVYESICNGVPMVMMPLFGDQMDNAKRMETKGAGVTLNVLEMTSEDLENALKAVINDKSYKENIMRLSSLHKDRPVEPLDLAVFWVEFVMRHKGAPHLRPAAHDLTWYQYHSLDVIGFLLAVVLTVAFITFKCCAYGYRKCLGKKGRVKKAHKSKTH
For the protein B3, the Km in [17] is 138 µM and 129 µM; in data set [18] it was 18700 µM; in data set [19] it was 185 µM; in [20], 64 µM; in data set [21], 460 µM; in data set [22], 93 µM. Besides, the Km in data set [23] came to 2070 µM; in [24], 24 µM; in data set [25], 9400 µM; in data set [26], 31 µM; in [27], 503 µM; in data set [28], 1310 µM. Also, the Km in data set [29] is 9 µM and 20 µM; in [30], 57 µM and 69 µM. The Vmax amounted to 4.5e-06 µmol/min/mg in [18]; 0.000336 µmol/min/mg in data set [19]; 0.00071 µmol/min/mg in [20]; 5e-06 µmol/min/mg in [22]; 2e-06 µmol/min/mg in data set [23]; 0.000134 µmol/min/mg in data set [24]. In addition, the Vmax in [25] came out at 0.0013 µmol/min/mg; in data set [26], 4e-06 µmol/min/mg; in data set [27], 0.000267 µmol/min/mg; in data set [28] it was 2e-06 µmol/min/mg.

B4: UDP-glucuronosyltransferase 1A4 (Homo sapiens) (protein)
chain: MARGLQVPLPRLATGLLLLLSVQPWAESGKVLVVPTDGSPWLSMREALRELHARGHQAVVLTPEVNMHIKEEKFFTLTAYAVPWTQKEFDRVTLGYTQGFFETEHLLKRYSRSMAIMNNVSLALHRCCVELLHNEALIRHLNATSFDVVLTDPVNLCGAVLAKYLSIPAVFFWRYIPCDLDFKGTQCPNPSSYIPKLLTTNSDHMTFLQRVKNMLYPLALSYICHTFSAPYASLASELFQREVSVVDLVSYASVWLFRGDFVMDYPRPIMPNMVFIGGINCANGKPLSQEFEAYINASGEHGIVVFSLGSMVSEIPEKKAMAIADALGKIPQTVLWRYTGTRPSNLANNTILVKWLPQNDLLGHPMTRAFITHAGSHGVYESICNGVPMVMMPLFGDQMDNAKRMETKGAGVTLNVLEMTSEDLENALKAVINDKSYKENIMRLSSLHKDRPVEPLDLAVFWVEFVMRHKGAPHLRPAAHDLTWYQYHSLDVIGFLLAVVLTVAFITFKCCAYGYRKCLGKKGRVKKAHKSKTH
B4: the Km in [31] is 62 µM; in data set [32] it was 95 µM and 101 µM; in data set [33] it was 16 µM; in data set [34], 59 µM and 86 µM; in [35] it was 147 µM; in [36], 32 µM. Further, the Vmax was 4.9e-05 µmol/min/mg in data set [31], 1.7e-05 µmol/min/mg in data set [33], 0.000132 µmol/min/mg in [35] and 0.000402 µmol/min/mg in data set [36].
